Measured values taken from paper doi:10.1101/2020.07.01.179531v1.

Substrate: O=P(O)(O)OC[C@@H](O)[C@@H](O)[C@H](O)[C@H](O)CO
Assay: purified protein
Conditions: 3 mM DTT added; other conditions presumably as for EsM1Pase1short

B1: EsM1Pase2 (Ectocarpus siliculosus) (protein)
chain: MEKAKAFDKMSILFDFDGTIGDTETPAMEVAFWELAPYLPDTTPDKLDGLMPEFVRDNAGKAFEFMVEKVDEDRKAAGLSTISEAFAAKSEPKEMLDAVDPHRKKFGLKTFAELRAPDGGEKENLLIQQKTETVDALSKIAQPCNGVPEVLAALTAAGVAFCISTTSPKPRVPASITACKLDEYFPADKVHSGESDFDPPRFKPNPSVYLKAAETEGKEPANCIAVEDSGSGVGSASNAGVGLTVGYVGASHIPDYKKDTHAEMLMSGGRAENGKGAEIVISDMTDLPKVIEFFAGEKIAGKSAPFDFPEELISSLKQPVWVHSTKA
  Km: 1300 µM
  kcat: 0.05 s⁻¹
